# Measurements taken from the supplement of paper PMC11780869.
# System: Bacillus subtilis
# Assay: cleaved RNA product abundance (RNA/gDNA barcode ratio) relative to median wild-type variant (ratio to wild type); higher = more accumulation of the downstream cleavage product
# Conditions: cleavage site: cggR-gapA (positions -7 to +36 mutated)
# Procedure, shortened: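 Cleaved product abundance was measured with barcoded reporter mRNAs (truncated aprE or tetM) carrying mutagenized RNase Y cleavage-site windows in the B. subtilis chromosome. Cultures in LB at 37°C grew from OD600 0.0003 to 0.3. Gel-selected cleaved RNA was reverse transcribed and barcode-sequenced with genomic DNA barcodes, and the RNA:gDNA barcode ratio per construct was scaled to the median construct bearing the unmutated site.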
# [1] = experiment (reporter, strain, medium): exp 4a: truncated aprE reporter, strain BJT201 with 2% xylose (RNase J1 expressed)
# [2] = experiment (reporter, strain, medium): exp 2b: truncated aprE reporter, strain BJT200
# [3] = experiment (reporter, strain, medium): exp 6: tetM reporter, strain 168
Sequence,cleaved RNA product abundance [1],cleaved RNA product abundance [2],cleaved RNA product abundance [3]
ACAGACGAAGGAGCCGCAACGAAGTTATTAAGGGATGAATAATCCCTCAACATAAATATCTCTCACTTATTTAAA,0.447,–,–
ACAGACGAAGGAGCCGCAACGAAGTTATTAAGGGATGAATAATCCCTCAATATAAATAACTCTCACTTATTTAAA,0.827,0.695,–
ACAGACGAAGGAGCCGCAACGAAGTTATTAAGGGATGAATAATCCCTCAATATAAATATCTCTCACTTATTTAAA,0.915,0.908,0.595
ACAGACGAAGGAGCCGCAACGAAGTTATTAAGGGATGAATAATCCCTCAATATAAATCTCTCTCACTTATTTAAA,0.538,–,–
ACAGACGAAGGAGCCGCAACGAAGTTATTAAGGGATGAATAATCCCTCAATATACATATCTCTCACTTATTTAAA,0.706,–,–
ACAGACGAAGGAGCCGCAACGAAGTTATTAAGGGATGAATAATCCCTCAATGTAAATATCTCTCACTTATTTAAA,0.11,–,–
ACAGACGAAGGAGCCGCAACGAAGTTATTAAGGGATGAATAATCCCTCACTATAAATATCTCTCACTTATTTAAA,0.435,–,–
ACAGACGAAGGAGCCGCAACGAAGTTATTAAGGGATGAATAATCCTTCAATATAAATATCTCTCACTTATTTAAA,0.448,–,–
ACAGACGAAGGAGCCGCAACGAAGTTATTAAGGGATGAATAATCTCTCAATATAAATATCTCTCACTTATTTAAA,0.684,–,–
ACAGACGAAGGAGCCGCAACGAAGTTATTAAGGGATGAATACTCCCTCAATATAAATATCTCTCACTTATTTAAA,0.55,–,–
ACAGACGAAGGAGCCGCAACGAAGTTATTAAGGGATGAATTATCCCTCAATATAAATATCTCTCACTTATTTAAA,0.91,–,–
ACAGACGAAGGAGCCGCAACGAAGTTATTAAGGGATGTATAATCCCTCAATATAAATATCTCTCACTTATTTAAA,0.656,–,–
ACAGACGAAGGAGCCGCAACGAAGTTATTAAGGGTTGAATAATCCCTCAATATAAATATCTCTCACTTATTTAAA,0.508,–,–
ACAGACGAAGGAGCCGCAACGAAGTTATTAAGGTATGAATAATCCCTCAATATAAATATCTCTCACTTATTTAAA,0.0862,–,–
ACAGACGAAGGAGCCGCAACGAAGTTATTAAGTGATGAATAATCCCTCAATATAAATATCTCTCACTTATTTAAA,0.13,0.0825,–
ACAGACGAAGGAGCCGCAACGAAGTTATTAATGGATGAATAATCCCTCAATATAAATATCTCTCACTTATTTAAA,0.141,–,–
ACAGACGAAGGAGCCGCAACGAAGTTATTATGGGATGAATAATCCCTCAATATAAATATCTCTCACTTATTTAAA,0.483,–,–
ACAGACGAAGGAGCCGCAACGAATTTATTAAGGGATGAATAATCCCTCAATATAAATATCTCTCACTTATTTAAA,1.15,0.738,–
ACAGACGAAGGAGCCGCAACGATGTTATTAAGGGATGAATAATCCCTCAATATAAATATCTCTCACTTATTTAAA,1.36,–,–
ACAGACGAAGGAGCCGCAAGAAGTTATTAAGGGATGAATAATCCCTCAATATAAATATCTCTCACTTATTTAAAG,0.931,1.27,–
ACAGACGAAGGAGCCGCAAGAAGTTATTAAGGGATTAATAATCCCTCAATATAAATATCTCTCACTTATTTAAAG,0.71,–,–

Sequence,cleaved RNA product abundance [1],cleaved RNA product abundance [2],cleaved RNA product abundance [3]
ACAGACGAAGGAGCCGCAAGAAGTTATTAGGGGATGAATAATCCCTCAATATAAATATCTCTCACTTATTTAAAG,0.817,–,–
ACAGACGAAGGAGCCGCAAGGAAGCTATTAAGGGATGAATAATCCCTCAATATAAATATCTCTCACTTATTTAAA,–,0.644,–
ACAGACGAAGGAGCCGCAAGGAAGTAATTAAGGGATGAATAATCCATCAATATAAATATCTCTCACTTATTTAAA,–,0.122,–
ACAGACGAAGGAGCCGCAAGGAAGTAATTAAGGGATGAATAATCCCTCAATATAAATATCTCTCACTTATTTAAA,0.182,–,–
ACAGACGAAGGAGCCGCAAGGAAGTTATAAAGGGATGAATAATCCCTCAATATAAATATCTCTCACTTATTTAAA,0.578,–,–
ACAGACGAAGGAGCCGCAAGGAAGTTATCAAGGGATGAATAATCCCTCAATATAAATATCTCTCACTTATTTAAA,0.347,0.271,–
ACAGACGAAGGAGCCGCAAGGAAGTTATTAACGGATGAATAATCCCTCAATATAAATATCTCTCACTTATTTAAA,0.121,–,–
ACAGACGAAGGAGCCGCAAGGAAGTTATTAAGGAATGAATAATCCCTCAATATAAATATCTCTCACTTATTTAAA,0.115,–,–
ACAGACGAAGGAGCCGCAAGGAAGTTATTAAGGCATGAATAATCCCTCAATATAAATATCTCTCACTTATTTAAA,0.148,–,–
ACAGACGAAGGAGCCGCAAGGAAGTTATTAAGGGACGAATAATCCCTCAATATAAATATCTCTCACTTATTTAAA,0.614,–,–
ACAGACGAAGGAGCCGCAAGGAAGTTATTAAGGGATAAATAATCCCTCAATATAAATATCTCTCACTTATTTAAA,0.919,0.888,–
ACAGACGAAGGAGCCGCAAGGAAGTTATTAAGGGATGAAAAATCCCTCAATATAAATATCTCTCACTTATTTAAA,0.663,–,–
ACAGACGAAGGAGCCGCAAGGAAGTTATTAAGGGATGAATAATACCTCAATATAAATATCTCTCACTTATTTAAA,0.197,0.0986,–
ACAGACGAAGGAGCCGCAAGGAAGTTATTAAGGGATGAATAATCCCTCAAAATAAATATCTCTCACTTATTTAAA,0.314,–,–
ACAGACGAAGGAGCCGCAAGGAAGTTATTAAGGGATGAATAATCCCTCAATATAAAAATCTCTCACTTATTTAAA,0.35,–,–
ACAGACGAAGGAGCCGCAAGGAAGTTATTAAGGGATGAATAATCCCTCAATATAAATATCTCTCACTTATTTAAA,0.863,0.954,1.21
ACAGACGAAGGAGCCGCAAGGAAGTTATTAAGGGATGAATAATCCCTCAATATACATATCTCTCACTTATTTAAA,0.774,–,–
ACAGACGAAGGAGCCGCAAGGAAGTTATTAAGGGATGAATAATCCTTCAATATAAATATCTCTCACTTATTTAAA,0.43,–,–
ACAGACGAAGGAGCCGCAAGGAAGTTATTAAGGGATGAATAATCTCTCAATATAAATATCTCTCACTTATTTAAA,0.86,–,–
ACAGACGAAGGAGCCGCAAGGAAGTTATTAAGGGATGAATAATTCCTCAATATAAATATCTCTCACTTATTTAAA,0.793,–,–
ACAGACGAAGGAGCCGCAAGGAAGTTATTAAGGGATGAATCATCCCTCAATATAAATATCTCTCACTTATTTAAA,0.633,0.824,–

Sequence,cleaved RNA product abundance [1],cleaved RNA product abundance [2],cleaved RNA product abundance [3]
ACAGACGAAGGAGCCGCAAGGAAGTTATTAAGGGATGATTAATCCCTCAATATAAATATCTCTCACTTATTTAAA,0.959,–,–
ACAGACGAAGGAGCCGCAAGGAAGTTATTAAGGTATGAATAATCCCTCAATATAAATATCTCTCACTTATTTAAA,0.101,–,–
ACAGACGAAGGAGCCGCAAGGAAGTTATTAAGTGATGAATAATCCCTCAATATAAATATCTCTCACTTATTTAAA,0.149,–,–
ACAGACGAAGGAGCCGCAAGGAAGTTATTAATGGATGAATAATCCCTCAATATAAATATCTCTCACTTATTTAAA,0.162,0.144,–
ACAGACGAAGGAGCCGCAAGGTAGTTATTAAGGGATGAATAATCCCTCAATATAAATATCTCTCACTTATTTAAA,1,–,–
ACAGACGAAGGAGCCGCAATAAAGTTATTAAGGGATGAATAATCCCTCAATATAAATATCTCTCACTTATTTAAA,1.09,1.03,–
ACAGACGAAGGAGCCGCAATGAAATTATTAAGGGATGAATAATCCCTCAATATAAATATCTCTCACTTATTTAAA,0.875,0.716,–
ACAGACGAAGGAGCCGCAATGAAATTATTAAGGGATTAATAATCCCTCAATATAAATATCTCTCACTTATTTAAA,0.695,–,–
ACAGACGAAGGAGCCGCAATGAACTTATTAAGGGATGAATAATCCCTCAATATAAATATCTCTCACTTATTTAAA,0.405,–,–
ACAGACGAAGGAGCCGCAATGAAGATATTAAGGCATGAATAATCCCTCAATATAAATATCTCTCACTTATTTAAA,0.138,–,–
ACAGACGAAGGAGCCGCAATGAAGATATTAAGGGATGAATAATCCCTCAATATAAATATCTCTCACTTATTTAAA,0.667,–,–
ACAGACGAAGGAGCCGCAATGAAGTAATTAAGGGATGAATAATCCCTCAATATAAATATCTCTCACTTATTTAAA,0.364,–,–
ACAGACGAAGGAGCCGCAATGAAGTCATTAAGGGATGAATAATCCCTCAATATAAATATCTCTCACTTATTTAAA,–,0.189,–
ACAGACGAAGGAGCCGCAATGAAGTTAATAAGGGATGAATAATCCTTCAATATAAATATCTCTCACTTATTTAAA,0.263,–,–
ACAGACGAAGGAGCCGCAATGAAGTTACTAAGGGATGAATAATCCCTCAATATAAATATCTCTCACTTATTTAAA,0.249,–,–
ACAGACGAAGGAGCCGCAATGAAGTTATCAAGGGATGAATAATCCCTCAATATAAATATCTCTCACTTATTTAAA,0.487,–,–
ACAGACGAAGGAGCCGCAATGAAGTTATTAAAGGATGAATAATCCCTCAATATAAATATCTCTCACTTATTTAAA,0.181,0.181,–
ACAGACGAAGGAGCCGCAATGAAGTTATTAACGGATGAATAATCCCTCAATATAAATATCTCTCACTTATTTAAA,0.145,–,–
ACAGACGAAGGAGCCGCAATGAAGTTATTAAGAGATGAATAATCCCTCAATATAAATATCTCTCACTTATTTAAA,0.204,0.131,–
